Results on two molecules are retold here after patent publication US20260263521A1, “ANTI-CD200R1 ANTIBODY AND USE THEREOF” (AIMED BIO INC., priority 2023, published 2026).

For assay [1], the target named is T1, CD200R1 on Jurkat-CD200R1 cells (Homo sapiens, UniProt Q8TD46).
T1 construct: host or cells: Jurkat
T1 sequence (Q8TD46 25-348): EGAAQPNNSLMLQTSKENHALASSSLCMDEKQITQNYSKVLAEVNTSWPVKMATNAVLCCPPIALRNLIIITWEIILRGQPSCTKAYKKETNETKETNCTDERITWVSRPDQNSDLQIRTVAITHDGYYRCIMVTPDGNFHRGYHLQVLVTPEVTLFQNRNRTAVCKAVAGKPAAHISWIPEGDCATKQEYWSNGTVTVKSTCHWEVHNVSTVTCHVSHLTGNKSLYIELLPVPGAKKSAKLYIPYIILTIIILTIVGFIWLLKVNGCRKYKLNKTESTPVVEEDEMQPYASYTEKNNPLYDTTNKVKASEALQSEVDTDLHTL
The assay is described as follows: Cell binding assay (flow cytometry), Jurkat-CD200R1 cells. The class given is cell-based. On the procedure:
The binding ability of the antibodies identified using unique multifaceted antibody discovery technology was identified in HH (CRL-2105) cells, which endogenously express CD200R1, and Jurkat-CD200R1 cells (Source: DiscoverX), which were generated by intranuclear injection of CD200R1 cDNA.
HH and Jurkat-CD200R1 cells were maintained in RPMI 1640 medium supplemented with 10% heat-inactivated FBS and 1% Penicillin/Streptomycin (P/S). The cells were washed by centrifugation at 130 g for 5 minutes. The cells were seeded onto 96-well round-bottom plates (SPL, #34296) at a density of 1×10^5 cells/well in Flow cytometry staining buffer (Invitrogen, #00-4222-26) or FACS buffer. The cells were treated with all 16 substances and the positive control LY3454738 (US 2020/0087395, I-4P, at Eli Lilly) a concentration of 500 nM in the IgG1 form. After incubation for 1 hour at 4° C., the cells were treated with Alexa-647 Goat anti-human IgG (H+L) cross-adsorbed secondary antibody (Invitrogen, #A21445) and incubated at 4° C. for an additional 30 minutes. […]
Cell-binding ability was determined in the same manner as in Example 12. For the six active substances primarily selected in Example 12, the isotype was changed to IgG4 or the LALAPG gene was mutated, and binding activity was determined in the two cell lines mentioned above.
Binding ability was determined in HH, an endogenous T cell line with high CD200R1 expression, and two additional overexpressing cell lines: U937-CD200R overexpressing cells, generated by intranuclear injection of human CD200R1 CDNA into the monocytic cell line U937 (CRL-1593.2) (Source: UMC Utrecht, the Netherlands) and Jurkat-CD200R overexpressing cells, were also cells engineered using a similar method.
All cell lines were maintained in RPMI 1640 medium supplemented with 10% heat-inactivated FBS and 1% penicillin/streptomycin (P/S) and cell binding was determined in the same manner as in Example 12. […]
Specific binding ability was determined using P001009 WT and antibody-optimized mutants, P001009v1, P001009v2, P001009v3, and P001009v4. […]
In general terms: Flow cytometry measures light scatter and fluorescence of single cells or particles in a stream.

For assay [2], the system named is Dok2 phosphorylation in Jurkat-CD200R1 cells. The assay is described as follows: Dok2 protein phosphorylation, Jurkat-CD200R1 reporter cells (PathHunter). The assay is classed as cell-based, human. The settings on record: for RLU: Jurkat-CD200R1 reporter cells, Fc capture antibody. On the procedure: Jurkat-CD200R1 cells were maintained as shown in Example 17 and were then seeded in triplicate onto CulturePlate-384, a White Opaque 384-well microplate (PerkinElmer, #6007688) at a density of 8,000 cells/well (32 μl). AssayComplete Cell Plating 0 Reagent (DiscoverX, #93-0563ROA) was used for cell plating and antibody dilution. The seeded cells were incubated at 37° C. and 5% CO2 for 30 minutes.
During the reaction, an Fc capture antibody, anti-human IgG (Fc-specific) antibody produced in goat (Sigma Aldrich, #12136, 2.3 mg/ml), was diluted in AssayComplete media and incubated at 37° C., 5% CO2 for 30 minutes. After incubation of both the plate containing the cells and the Fc capture antibody, the cells were treated with the Fc capture antibody at a concentration of 50 μg/ml per well. The reaction was incubated for 3 hours at 37° C., 5% CO2. After cross-reactivity with the Fc capture antibody, the cells were treated with a total of three antibodies, as shown in Example 17. The cells were diluted two-fold from a maximum concentration of 50 nM to 25 nM, 12.5 nM, 6.25 nM, 3.12 nM, 1.56 nM, 0.78 nM, 0.39 nM, 0.20 nM, 0.098 nM, and 0.049 nM. After treatment, the result was reacted at room temperature for an additional 2 hours.
The PathHunter Detection kit (DiscoverX, #93-0001) was used to confirm the response of the treated antibodies to the Jurkat-CD200R1 reporter cell line. Final data were analyzed using an Infinite M200 Pro Plate reader (Tecan) to measure the luminescence from phosphorylated Dok2. […] luminescence unit (RLU) is an arbitrary unit representing luminescence, calculated by converting the signal detected by a cross-linked Fc capture antibody.

Where a chain is given by its changes, count along the chain named.

B1: P001009: phage display anti-CD200R1 clone; VH SEQ ID NO: 79, VL SEQ ID NO: 94 (antibody, V domains shown)
VH: EVQLLESGGGLVQPGGSLRLSCAASGFTFSSYDMSWVRQAPGKGLEWVSWISHGGGSIYYADSVKGRFTISRDNSKNTLYLQMNSLRAEDTAVYYCARDAPAYSAPLFDYWGQGTLVTVSS
VL: QSVLTQPPSASGTPGQRVTISCSGSSSNIGNNAVNWYQQLPGTAPKLLIYYDSNRPSGVPDRFSGSKSGTSASLAISGLRSEDEADYYCAAWDDSLSGYVFGGGTKLTVL
For the molecule B1, the “cell binding ability, IgG4 or LALAPG mutants” value in assay [1] (Jurkat-CD200R1 cells) is on record as “highest efficacy”. Moreover, the “luminescence due to phosphoDok2” value in assay [2] is listed as “exhibited luminescence due to phosphoDok2”. In addition, the RLU in assay [2] (antibody dose 0.05 nM) stood at 10432 ± 2166 a.u; in assay [2] (antibody dose 0.10 nM), 10359 ± 1227 a.u; in assay [2] (antibody dose 0.20 nM), 15184 ± 2826 a.u; in assay [2] (antibody dose 0.39 nM) it was 10861 ± 917 a.u; in assay [2] (antibody dose 0.78 nM), 25264 ± 1484 a.u; in assay [2] (antibody dose 1.56 nM), 33140 ± 5780 a.u. Besides, the RLU in assay [2] (antibody dose 3.13 nM) worked out at 41203 ± 4810 a.u; in assay [2] (antibody dose 6.25 nM), 56115 ± 6866 a.u; in assay [2] (antibody dose 12.5 nM) it was 57733 ± 6385 a.u; in assay [2] (antibody dose 25 nM), 50858 ± 8029 a.u; in assay [2] (antibody dose 50 nM) it was 37120 ± 14299 a.u.

B2: P001009v1: P001009 variant, LC S52 and LC S94 substituted with K and R; VH SEQ ID NO: 79 (antibody, V domains shown)
VH: B1 VH
VL: B1 VL with S53K, S95R
For B2, in assay [1] (serial dilution from 100 nM), the “binding ability to Jurkat-CD200R1” value is reported as “highest binding ability”. Moreover, the “luminescence due to phosphoDok2” value in assay [2] is reported as “exhibited luminescence due to phosphoDok2”. Also, the RLU in assay [2] (antibody dose 0.05 nM) is 9521 ± 1128 a.u; in assay [2] (antibody dose 0.10 nM), 10677 ± 2258 a.u; in assay [2] (antibody dose 0.20 nM), 17866 ± 1925 a.u; in assay [2] (antibody dose 0.39 nM), 11340 ± 509 a.u; in assay [2] (antibody dose 0.78 nM), 28644 ± 4755 a.u; in assay [2] (antibody dose 1.56 nM) it was 32863 ± 4207 a.u. Moreover, the RLU in assay [2] (antibody dose 3.13 nM) came out at 29729 ± 3825 a.u; in assay [2] (antibody dose 6.25 nM) it was 48879 ± 1315 a.u; in assay [2] (antibody dose 12.5 nM), 45830 ± 6990 a.u; in assay [2] (antibody dose 25 nM) it was 53185 ± 13281 a.u; in assay [2] (antibody dose 50 nM) it was 32676 ± 5379 a.u.
